# Source: the RNAGym collection of RNA variant scans (doi:10.1021/acssynbio.7b00057)
# B1: Pistol ribozyme (parent)
# chain: GGGUCGUUGUUCCAUAAUCGCGUGGAUAUGGCACGCAAGUUUCUACCGGGCACCGUAAAUGUCCGACUGGAGCCGUUCGGGCGGCUAUAAACAGACCUCAGGCCCGAAGCGUGGCGGCACCUGCCGCCGGUGGUAAAAAAGAUCGGAAGAGCACACGUCU
# Variants of: B1
# Experiment: aptazyme ON/OFF ratio, guanine; higher = stronger switching; co-transcriptional cleavage with and without guanine
row,Variant,aptazyme ON/OFF ratio
1,U7C U8C G9U U10G U11G C12A C13G,1.09
2,U7A U8G G9C U10A U11G C12A C13G,1.18
3,U7A U8G G9C U10A U11G C12A C13U,1.16
4,U7A U8C U11A C13U,1.15
5,U7A U8G G9U U11A,2.05
6,U7A U8G G9U U10G U11A,1.16
7,U7G U8A G9U U10A U11C C12G C13G,1.05
8,U7C U8C G9A U10A U11A C12G C13A,1.21
9,G9U U11A C12U C13G,1.5
10,U7A U8C G9A U11A C12G C13U,1.16
11,U7A U10A U11G C12A C13G,1.39
12,U7A U8C C12G C13G,1.19
13,U7C U8A G9U U11A C13G,1.05
14,U7A G9A U10A U11G C12A C13G,1.22
15,G9C U10G U11G C12U C13A,1.09
16,U7A U8A U10C C12U,1.68
17,U7A U8A G9U U10G C12A,1.22
18,U7C U8G G9C U10C U11G C12U C13U,1.07
19,U8A G9C U10C C12A C13G,1.08
20,U7G U8C G9U U10A U11A C12U,2.3
21,U7G G9U U10A U11G C13G,1.15

row,Variant,aptazyme ON/OFF ratio
1,U8C G9A C12G C13G,1.27
2,U7C U8A U10C U11A,1.16
3,U7G U8G G9C U10C C13A,1.44
4,G9U U10C U11G,3.45
5,U7A U8A U10A U11A C12A,1.18
6,U8C C12G C13U,1.31
7,U7C U8C G9C U10A C12G C13G,1.17
8,U7A G9A U11C C12U C13A,1.1
9,U7C U8A U10A U11C C12G C13A,1.15
10,G9U U10G C12A C13A,0.843
11,U7C U8C U10A C13G,1.05
12,G9A U10C U11G C12U,1.52
13,U7A G9A U10C U11A C12A C13A,1.2
14,U7A U8C G9U U10G U11G C12G C13G,1.22
15,U7A U8C G9A U10G U11G C12G,1.44
16,G9A U10G U11G C13U,1.12
17,U7G U8A G9C U10A U11C C13G,1.04
18,U7G U8G U10A U11C C12U C13G,1.25
19,U7G U8C G9C U11C C12G C13G,1.07
20,U7C U8G U10G U11A C12U,1.37
21,U8C U10A U11G C12U C13A,1.32

row,Variant,aptazyme ON/OFF ratio
1,U7G U8G G9C U11A C12U C13G,1.15
2,U7G U8A U10G U11A C12G C13G,1.25
3,U7G U8G G9A U10A U11G C12G,1.43
4,U7A U8C G9A U11G C12A C13U,1.08
5,U7C U10C U11C C12U,1.31
6,U7G U8A G9C U10A U11A C12U,1.03
7,U7G U8A G9C U10G U11C C12G C13A,1.03
8,U7G G9A U10A C12A C13U,1.28
9,U8G G9C C13U,1.04
10,U7C U8A G9A U11C C12A C13U,1.28
11,U7C U8C G9C U10A U11A C12U,1.09
12,U8A G9A U10C U11G C12A,1.03
13,G9C U10G U11C C12U C13G,1.09
14,U7G U8C G9A U10C U11A,3.52
15,U7A U8A G9C U10G U11A C12U C13G,1.13
16,U8G G9U U10C U11A C13A,1.06
17,U7C U8G G9U U10C U11C C12A C13U,1.18
18,U7C U8A G9A U10G U11G C13A,1.11
19,G9C U11A C12G C13U,1.22
20,U7A U8C G9U U10A U11C C12A,1.2
21,U7C U8C G9U U10G C12A C13G,1.1

row,Variant,aptazyme ON/OFF ratio
1,U7G U8C G9C C13G,1.05
2,U7G U8C G9U U10G C13A,1.24
3,U8A U10G C12A,1.31
4,U7C U8A C12U,1.68
5,U7C U8A G9C U11A C12U C13A,1.16
6,U7G U8A G9U U10C C12G C13U,1.19
7,U7C U8A G9U U10G C12G C13U,1.22
8,U7G U8G G9A U10G U11G C13G,1.41
9,U7G U8C G9A U10G U11A C12G C13A,1.09
10,U7G U8C G9C U10C U11A C13U,1.03
11,U7C U8C U10G U11A C13U,1.15
12,U7C U8C U10G U11A C13A,1.21
13,U7G U10G U11C C12G C13U,1.35
14,U7C U8A G9A U10A U11C C12G C13A,1.14
15,U7C U8A G9A U10A U11C C12G C13G,1.35
16,U7A G9C U10G C12G,1.11
17,U8G G9C U10C U11G C12A C13G,1.05
18,U8G G9A U10C U11C C12U,1.02
19,U7A G9C U10C U11A C12U C13U,1.06
20,U8C G9A U10C U11A C12G,1.37
